{
  "source": "patent US20210316003A1",
  "about": "(Immunomedics, Inc., priority 2020, published 2021)",
  "key": {"[1]": {"test": "Serum pharmacokinetics (ELISA for IgG and intact conjugate, HPLC for SN-38)", "format": "in vivo, human", "details": "patients", "experimental": "Two ELISA methods were used to measure the clearance of the IgG (capture with anti-hRS7 idiotype antibody) and the intact conjugate (capture with anti-SN-38 IgG/probe with anti-hRS7 idiotype antibody). SN-38 was measured by HPLC."}, "[2]": {"tested_on": "patients with diverse metastatic cancers", "test": "Phase I trial and phase II extension in diverse epithelial cancers: related adverse events (CTCAE v 4.0)", "format": "in vivo, human"}, "[3]": {"tested_on": "patients with non-small cell lung cancer (NSCLC)", "details": "cited from earlier work"}},
  "data": [
    {"substance": "sacituzumab govitecan", "values": [
      {"measurement": "Clearance of intact conjugate compared with the IgG", "setting": "[1]; ELISA", "result": "cleared more quickly than the IgG"},
      {"measurement": "Time for the conjugate to clear from the serum", "setting": "[1]; serum", "result": "≤ 3", "unit": "days"},
      {"measurement": "SN-38 in the serum bound to the IgG (non-glucuronidated form)", "setting": "[1]; serum, HPLC (Unbound and TOTAL)", "result": "> 95", "unit": "%"},
      {"measurement": "Diarrhea ≥G3", "setting": "[2]; 49 pts reporting related AE", "result": 9, "unit": "%"},
      {"measurement": "Fatigue ≥G3", "setting": "[2]; 49 pts reporting related AE", "result": 9, "unit": "%"},
      {"measurement": "Nausea ≥G3", "setting": "[2]; 49 pts reporting related AE", "result": 0, "unit": "%"},
      {"measurement": "Neutropenia ≥G3", "setting": "[2]; 49 pts reporting related AE", "result": 28, "unit": "%"},
      {"measurement": "Vomiting ≥G3", "setting": "[2]; 49 pts reporting related AE", "result": 2, "unit": "%"},
      {"measurement": "Abdominal pain, Grade 3, patients", "setting": "[2]; related AE, N = 47", "result": 0},
      {"measurement": "Abdominal pain, Grade 4, patients", "setting": "[2]; related AE, N = 47", "result": 0},
      {"measurement": "Abdominal pain, TOTAL", "setting": "[2]; related AE, N = 47", "result": 11, "unit": "%"},
      {"measurement": "Alopecia, TOTAL", "setting": "[2]; related AE, N = 47", "result": 40, "unit": "%"},
      {"measurement": "Anemia, Grade 3, %", "setting": "[2]; related AE, N = 47", "result": "(4%)"},
      {"measurement": "Anemia, Grade 3, patients", "setting": "[2]; related AE, N = 47", "result": 2},
      {"measurement": "Anemia, Grade 4, patients", "setting": "[2]; related AE, N = 47", "result": 0},
      {"measurement": "Anemia, TOTAL", "setting": "[2]; related AE, N = 47", "result": 13, "unit": "%"},
      {"measurement": "Deep vein thrombosis, Grade 3, %", "setting": "[2]; related AE, N = 47", "result": "(2%)"},
      {"measurement": "Deep vein thrombosis, Grade 3, patients", "setting": "[2]; related AE, N = 47", "result": 1},
      {"measurement": "Deep vein thrombosis, Grade 4, patients", "setting": "[2]; related AE, N = 47", "result": 0},
      {"measurement": "Deep vein thrombosis, TOTAL", "setting": "[2]; related AE, N = 47", "result": 2, "unit": "%"},
      {"measurement": "Diarrhea, Grade 3, %", "setting": "[2]; related AE, N = 47", "result": "(9%)"},
      {"measurement": "Diarrhea, Grade 3, patients", "setting": "[2]; related AE, N = 47", "result": 4},
      {"measurement": "Diarrhea, Grade 4, patients", "setting": "[2]; related AE, N = 47", "result": 0},
      {"measurement": "Diarrhea, TOTAL", "setting": "[2]; related AE, N = 47", "result": 47, "unit": "%"},
      {"measurement": "Dysgeusia, Grade 3, patients", "setting": "[2]; related AE, N = 47", "result": 0},
      {"measurement": "Dysgeusia, Grade 4, patients", "setting": "[2]; related AE, N = 47", "result": 0},
      {"measurement": "Dysgeusia, TOTAL", "setting": "[2]; related AE, N = 47", "result": 15, "unit": "%"},
      {"measurement": "Fatigue, Grade 3, %", "setting": "[2]; related AE, N = 47", "result": "(9%)"},
      {"measurement": "Fatigue, Grade 3, patients", "setting": "[2]; related AE, N = 47", "result": 4},
      {"measurement": "Fatigue, Grade 4, patients", "setting": "[2]; related AE, N = 47", "result": 0},
      {"measurement": "Fatigue, TOTAL", "setting": "[2]; related AE, N = 47", "result": 55, "unit": "%"},
      {"measurement": "Febrile Neutropenia, Grade 3, %", "setting": "[2]; related AE, N = 47", "result": "(2%)"},
      {"measurement": "Febrile Neutropenia, Grade 3, patients", "setting": "[2]; related AE, N = 47", "result": 1},
      {"measurement": "Febrile Neutropenia, Grade 4, %", "setting": "[2]; related AE, N = 47", "result": 4, "unit": "%"},
      {"measurement": "Febrile Neutropenia, Grade 4, patients", "setting": "[2]; related AE, N = 47", "result": 2},
      {"measurement": "Febrile Neutropenia, TOTAL", "setting": "[2]; related AE, N = 47", "result": 6, "unit": "%"},
      {"measurement": "Hypokalemia, Grade 3, %", "setting": "[2]; related AE, N = 47", "result": "(2%)"},
      {"measurement": "Hypokalemia, Grade 3, patients", "setting": "[2]; related AE, N = 47", "result": 1},
      {"measurement": "Hypokalemia, Grade 4, patients", "setting": "[2]; related AE, N = 47", "result": 0},
      {"measurement": "Hypokalemia, TOTAL", "setting": "[2]; related AE, N = 47", "result": 11, "unit": "%"},
      {"measurement": "Nausea, Grade 3, patients", "setting": "[2]; related AE, N = 47", "result": 0},
      {"measurement": "Nausea, Grade 4, patients", "setting": "[2]; related AE, N = 47", "result": 0},
      {"measurement": "Nausea, TOTAL", "setting": "[2]; related AE, N = 47", "result": 53, "unit": "%"},
      {"measurement": "Neutropenia, Grade 3, %", "setting": "[2]; related AE, N = 47", "result": "(24%)"},
      {"measurement": "Neutropenia, Grade 3, patients", "setting": "[2]; related AE, N = 47", "result": 11},
      {"measurement": "Neutropenia, Grade 4, %", "setting": "[2]; related AE, N = 47", "result": 4, "unit": "%"},
      {"measurement": "Neutropenia, Grade 4, patients", "setting": "[2]; related AE, N = 47", "result": 2},
      {"measurement": "Neutropenia, TOTAL", "setting": "[2]; related AE, N = 47", "result": 43, "unit": "%"},
      {"measurement": "Pyrexia, Grade 3, patients", "setting": "[2]; related AE, N = 47", "result": 0},
      {"measurement": "Pyrexia, Grade 4, patients", "setting": "[2]; related AE, N = 47", "result": 0},
      {"measurement": "Pyrexia, TOTAL", "setting": "[2]; related AE, N = 47", "result": 13, "unit": "%"},
      {"measurement": "Vomiting, Grade 3, %", "setting": "[2]; related AE, N = 47", "result": "(2%)"},
      {"measurement": "Vomiting, Grade 3, patients", "setting": "[2]; related AE, N = 47", "result": 1},
      {"measurement": "Vomiting, Grade 4, patients", "setting": "[2]; related AE, N = 47", "result": 0},
      {"measurement": "Vomiting, TOTAL", "setting": "[2]; related AE, N = 47", "result": 32, "unit": "%"},
      {"measurement": "WBC Decrease, Grade 3, %", "setting": "[2]; related AE, N = 47", "result": "(2%)"},
      {"measurement": "WBC Decrease, Grade 3, patients", "setting": "[2]; related AE, N = 47", "result": 1},
      {"measurement": "WBC Decrease, Grade 4, patients", "setting": "[2]; related AE, N = 47", "result": 0},
      {"measurement": "WBC Decrease, TOTAL", "setting": "[2]; related AE, N = 47", "result": 6, "unit": "%"},
      {"measurement": "ORR", "setting": "[3]; 47 response assessable patients, median of three prior therapies", "result": 19, "unit": "%"},
      {"measurement": "Clinical benefit rate", "setting": "[3]; 47 response assessable patients", "result": 43, "unit": "%"},
      {"measurement": "Median OS", "setting": "[3]", "result": 9.5, "unit": "months"},
      {"measurement": "Median PFS", "setting": "[3]", "result": 5.2, "unit": "months"}
    ]}
  ]
}
